Experimental data from patent US20130052176, “APTAMER FOR NGF AND USE THEREOF” (SHIONOGI & CO., LTD, published 2013).

What was measured:
[1] = target: T1, NGF (nerve growth factor) (human, UniProt P01138 P01138:122-241); test: cell_activity; neurite outgrowth, NGF 1.1 nM; SPR binding; blocks NGF-TrkA; TF-1 IC50 >30 nM; conditions: tags: amine-coupled to CM5 chip in SPR; soluble in cell assays; chain copies: 2
Method: (§1) The neurite outgrowth inhibitory activity of the aptamer obtained in Example 1 was evaluated by using Neuroscreen-1 cell, which is a subclone of PC-12 cells.
(§2) The cells (2500 cells per well) were cultured for one day in an RPMI-1640 medium containing 2.5% horse serum and 1.25% fetal bovine serum in a 96 well flat-bottom plate coated with collagen type IV. […] Two days later, the cytoplasm and nuclei were stained using Cellomics Neurite Outgrowth Kit (manufactured by Thermo Scientific), and neurite length per cell was measured by Cellomics ArrayScan VTI (manufactured by Thermo Scientific). With the neurite length per cell obtained by the addition of NGF alone as inhibitory activity 0%, and that of the cell obtained by NGF free culture for 2 days as inhibitory activity 100%, the inhibitory activity of the aptamer was calculated from the neurite length per cell obtained by culturing with the addition of NGF and the aptamer in mixture. When the inhibitory activity was 0% or below, ‘0%’ is indicated.

[2] = target: T1, NGF (nerve growth factor); test: cell_activity; neurite outgrowth, NGF 0.38 nM; SPR binding; TF-1 IC50 2.8 nM; conditions: tags: amine-coupled to CM5 chip in SPR; soluble in cell assays; chain copies: 2
Method: as §1, §2

[3] = target: T1, NGF (nerve growth factor); test: cell_activity; neurite outgrowth, NGF 1.1 nM; TF-1 IC50 <1.0 nM; conditions: tags: human NGF; chain copies: 2
Method: as §1, §2

[4] = target: T1, NGF (nerve growth factor); test: cell_activity; neurite outgrowth, NGF 0.38 nM; TF-1 IC50 0.130 nM; conditions: tags: human NGF; chain copies: 2
Method: as §1, §2

[5] = target: T1, NGF (nerve growth factor); test: cell_activity; neurite outgrowth, NGF 0.38 nM; TF-1 IC50 0.074 nM; conditions: tags: human NGF; chain copies: 2
Method: as §1, §2

[6] = target: T1, NGF (nerve growth factor); test: cell_activity; neurite outgrowth, NGF 0.38 nM; TF-1 IC50 0.146 nM; conditions: tags: human NGF; chain copies: 2
Method: as §1, §2

[7] = target: T1, NGF (nerve growth factor); test: cell_activity; neurite outgrowth, NGF 0.38 nM; TF-1 IC50 0.122 nM; conditions: tags: human NGF; chain copies: 2
Method: as §1, §2

[8] = target: T1, NGF (nerve growth factor); test: cell_activity; neurite outgrowth, NGF 0.38 nM; TF-1 IC50 0.218 nM; conditions: tags: human NGF; chain copies: 2
Method: as §1, §2

[9] = target: T1, NGF (nerve growth factor); test: cell_activity; neurite outgrowth, NGF 0.38 nM; TF-1 IC50 0.176 nM; conditions: tags: human NGF; chain copies: 2
Method: as §1, §2

[10] = target: T1, NGF (nerve growth factor); test: cell_activity; neurite outgrowth, NGF 0.38 nM; TF-1 IC50 0.107 nM; conditions: tags: human NGF; chain copies: 2
Method: as §1, §2

[11] = target: T1, NGF (nerve growth factor); test: cell_activity; neurite outgrowth, NGF 0.38 nM; TF-1 IC50 0.044 nM; conditions: tags: human NGF; chain copies: 2
[12] = target: T1, NGF (nerve growth factor); test: cell_activity; neurite outgrowth, NGF 0.38 nM; TF-1 IC50 >0.3 nM; conditions: tags: human NGF; chain copies: 2
Method: as §1, §2

[13] = target: T1, NGF (nerve growth factor); test: cell_activity; neurite outgrowth, NGF 0.38 nM; TF-1 IC50 0.100 nM; conditions: tags: human NGF; chain copies: 2
Method: as §1, §2

[14] = target: T1, NGF (nerve growth factor); test: cell_activity; neurite outgrowth, NGF 0.38 nM; TF-1 IC50 0.069 nM; conditions: tags: human NGF; chain copies: 2
Method: as §1, §2

[15] = target: T1, NGF (nerve growth factor); test: cell_activity; neurite outgrowth, NGF 0.38 nM; TF-1 IC50 0.193 nM; conditions: tags: human NGF; chain copies: 2
Method: as §1, §2

[16] = target: T1, NGF (nerve growth factor); test: cell_activity; neurite outgrowth, NGF 0.38 nM; TF-1 IC50 0.239 nM; conditions: tags: human NGF; chain copies: 2
Method: as §1, §2

[17] = target: T1, NGF (nerve growth factor); test: cell_activity; neurite outgrowth, NGF 0.38 nM; TF-1 IC50 0.104 nM; conditions: tags: human NGF; chain copies: 2
Method: as §1, §2

[18] = target: T1, NGF (nerve growth factor); test: cell_activity; neurite outgrowth, NGF 0.38 nM; TF-1 IC50 0.055 nM; conditions: tags: human NGF; chain copies: 2
Method: as §1, §2

[19] = target: T1, NGF (nerve growth factor); test: cell_activity; neurite outgrowth, NGF 0.38 nM; TF-1 IC50 0.164 nM; conditions: tags: human NGF; chain copies: 2
Method: as §1, §2

[20] = target: T1, NGF (nerve growth factor); test: cell_activity; neurite outgrowth, NGF 0.38 nM; TF-1 IC50 0.165 nM; conditions: tags: human NGF; chain copies: 2
Method: as §1, §2

[21] = target: T1, NGF (nerve growth factor); test: cell_activity; neurite outgrowth, NGF 1.1 nM; SPR binding; TF-1 IC50 >30 nM; conditions: tags: amine-coupled to CM5 chip in SPR; soluble in cell assays; chain copies: 2
Method: as §1, §2

T1 sequence (P01138 122-241, one chain of several): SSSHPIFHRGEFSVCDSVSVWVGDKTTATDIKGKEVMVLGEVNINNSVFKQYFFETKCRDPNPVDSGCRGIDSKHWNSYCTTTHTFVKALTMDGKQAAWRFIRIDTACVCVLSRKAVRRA

B1: aptamer ID 32 (ssRNA)
RNA: GGGAGAACUUCGACCAGAAGUCGAUAACGAACAAAACUCCCAAAGGAAUAUAUGUGCGCAUACA
modifications: 2'-F at all pyrimidines
For B1, the IC50 [1] was 1 nM.

GGGAGACUCGCAGAGUUGAAAGAAACCCAAAUAGUGUGCGCAC (ssRNA, 2'-F at all pyrimidines) [aptamer ID 30] gave an IC50 [2] of less than 0.3 nM.

With GGGAGACUCGCCAGAGUUGAAAGAAACCCAAAUAAGUGUGCGCAC (ssRNA, 2'-F all pyrimidines) [aptamer ID 26] the IC50 [3] was less than 1 nM.

B2: aptamer ID 26(57) (mixed)
RNA: GGGAGACUCGCCAGAGUUGAAAGAAACCCAAAUAAGUGUGCGCAC
modifications: 5' and 3' idT; 2'-OMe purines except ribo g3,g19,a20,a26; 2'-F c27,c28,u39,c43; dC29,dC41; other pyrimidines 2'-OMe
Work on B2 yielded an IC50 [4] of 0.213 nM.

B3: aptamer ID 26(47) (ssRNA)
RNA: GGGAGACUCGCCAGAGUUGAAAGAAACCCAAAUAAGUGUGCGCAC
modifications: 5' and 3' idT; 2'-OMe purines except ribo g3,g19,a20,a26; 2'-OMe c7,c11,c12,u17,u33,u37,c45; other pyrimidines 2'-F
B3 gave an IC50 [5] of 0.065 nM.

B4: aptamer ID 26(45) (ssRNA)
RNA: GGGAGACUCGCCAGAGUUGAAAGAAACCCAAAUAAGUGUGCGCAC
modifications: 5' and 3' idT; 2'-OMe purines except ribo g3,g19,a20,a26; 2'-OMe c7,c9,c11,c12,u17,u33,c45; other pyrimidines 2'-F
In the case of B4, the IC50 [6] is reported as 0.238 nM.

B5: aptamer ID 26(56) (mixed)
RNA: GGGAGACUCGCCAGAGUUGAAAGAAACCCAAAUAAGUGUGCGCAC
modifications: 5' and 3' idT; 2'-OMe purines except ribo g3,g19,a20,a26; 2'-F c27,c28,c41,c43; dC29,dU39; other pyrimidines 2'-OMe
B5 showed an IC50 [7] of 0.154 nM.

B6: aptamer ID 26(39) (ssRNA)
RNA: GGGAGACUCGCCAGAGUUGAAAGAAACCCAAAUAAGUGUGCGCAC
modifications: as 26(19) (5' and 3' idT; 2'-F pyrimidines; 2'-OMe purines except ribo g3,g19,a20,a26) but c7 is 2'-OMe; PS between a25 and a26
Binder B6 has an IC50 [8] of 0.168 nM.

B7: aptamer ID 26(33) (ssRNA)
RNA: GGGAGACUCGCCAGAGUUGAAAGAAACCCAAAUAAGUGUGCGCAC
modifications: as 26(19) (5' and 3' idT; 2'-F pyrimidines; 2'-OMe purines except ribo g3,g19,a20,a26) but c12 is 2'-OMe
Binder B7 has an IC50 [9] of 0.294 nM.

B8: aptamer ID 26(58) (mixed)
RNA: GGGAGACUCGCCAGAGUUGAAAGAAACCCAAAUAAGUGUGCGCAC
modifications: 5' and 3' idT; 2'-OMe purines except ribo g3,g19,a20,a26; 2'-F c27,c28,u39,c41; dC29,dC43; other pyrimidines 2'-OMe
B8 showed an IC50 [10] of 0.143 nM.

B9: aptamer ID 26(10) (ssRNA)
RNA: GGGAGACUCGCCAGAGUUGAAAGAAACCCAAAUAAGUGUGCGCAC
modifications: 5' and 3' idT; 2'-F all pyrimidines; 2'-OMe all purines except ribo g3,g5,g19,a20,a21,a22,a24
Work on B9 yielded an IC50 [11] of 0.047 nM.

B10: aptamer ID 26(40) (ssRNA)
RNA: GGGAGACUCGCCAGAGUUGAAAGAAACCCAAAUAAGUGUGCGCAC
modifications: as 26(19) (5' and 3' idT; 2'-F pyrimidines; 2'-OMe purines except ribo g3,g19,a20,a26) but c7 is 2'-OMe; PS between a26 and c27
Work on B10 yielded an IC50 [12] of 0.247 nM.

B11: aptamer ID 26(46) (ssRNA)
RNA: GGGAGACUCGCCAGAGUUGAAAGAAACCCAAAUAAGUGUGCGCAC
modifications: 5' and 3' idT; 2'-OMe purines except ribo g3,g19,a20,a26; 2'-OMe c7,u8,c11,c12,u17,u33,c45; other pyrimidines 2'-F
With B11 the IC50 [13] was 0.097 nM.

B12: aptamer ID 26(48) (ssRNA)
RNA: GGGAGACUCGCCAGAGUUGAAAGAAACCCAAAUAAGUGUGCGCAC
modifications: 5' and 3' idT; 2'-OMe purines except ribo g3,g19,a20,a26; 2'-OMe c7,c11,c12,u17,u18,u33,u37,c45; other pyrimidines 2'-F
Work on B12 yielded an IC50 [14] of 0.053 nM.

B13: aptamer ID 26(32) (ssRNA)
RNA: GGGAGACUCGCCAGAGUUGAAAGAAACCCAAAUAAGUGUGCGCAC
modifications: as 26(19) (5' and 3' idT; 2'-F pyrimidines; 2'-OMe purines except ribo g3,g19,a20,a26) but c11 is 2'-OMe
B13 gave an IC50 [15] of 0.22 nM.

B14: aptamer ID 26(34) (ssRNA)
RNA: GGGAGACUCGCCAGAGUUGAAAGAAACCCAAAUAAGUGUGCGCAC
modifications: as 26(19) (5' and 3' idT; 2'-F pyrimidines; 2'-OMe purines except ribo g3,g19,a20,a26) but u33 is 2'-OMe
For B14, the IC50 [16] was 0.247 nM.

B15: aptamer ID 26(19) (ssRNA)
RNA: GGGAGACUCGCCAGAGUUGAAAGAAACCCAAAUAAGUGUGCGCAC
modifications: 5' and 3' idT; 2'-F all pyrimidines; 2'-OMe all purines except ribo g3,g19,a20,a26
In the case of B15, the IC50 [17] is reported as less than 0.01 nM.

B16: aptamer ID 26(60) (ssRNA)
RNA: GGGAGACUCGCCAGAGUUGAAAGAAACCCAAAUAAGUGUGCGCAC
modifications: 5' and 3' idT; 2'-OMe purines except ribo g3,g19,a20 and 2'-F a26; 2'-F c27,c28,c29,u39,c41,c43; other pyrimidines 2'-OMe
In the case of B16, the IC50 [18] is reported as 0.105 nM.

B17: aptamer ID 26(35) (ssRNA)
RNA: GGGAGACUCGCCAGAGUUGAAAGAAACCCAAAUAAGUGUGCGCAC
modifications: as 26(19) (5' and 3' idT; 2'-F pyrimidines; 2'-OMe purines except ribo g3,g19,a20,a26) but c45 is 2'-OMe
B17 showed an IC50 [19] of 0.166 nM.

B18: aptamer ID 26(30) (mixed)
RNA: GGGAGACUCGCCAGAGUUGAAAGAAACCCAAAUAAGUGUGCGCAC
modifications: as 26(19) (5' and 3' idT; 2'-F pyrimidines; 2'-OMe purines except ribo g3,g19,a20,a26) but c45 is dC
With B18 the IC50 [20] was 0.289 nM.

B19: aptamer ID 43 (ssRNA)
RNA: GGGAGAACUUCGACCAGAAGUCGAUAACGAACAAAACUCCCAAAUAUGUGCGCAUACA
modifications: 2'-F at all pyrimidines
B19 gave an IC50 [21] of less than 3 nM.
